# Measurements reported in the supplement of paper PMC11316812.
# ± gives the standard deviation of the averaged measurements.
# Columns and labels:
# MCF7 = assay: percentage of EdU-negative (G0-arrested) nuclei per well, 72 h; higher = more G0 arrest; details: reference: sequence is the full UniProt precursor, the tested protein was the secreted form or ectodomain
# hTERT-HMEC = assay: as above; details: reference: sequence is the full UniProt precursor, the tested protein was the secreted form or ectodomain
# [1] = protein concentration 0.00575 µM
# [2] = protein concentration 0.0575 µM
# [3] = protein concentration 0.0225 µM
# [4] = protein concentration 0.03125 µM
# [5] = protein concentration 0.3125 µM
# [6] = protein concentration 0.023015 µM
# [7] = protein concentration 0.23015 µM
# [8] = protein concentration 0.0357143 µM
# [9] = protein concentration 0.357143 µM
# 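Note: secreted proteins added to cultured cells, EdU pulse at the end, nuclei found by Hoechst imaging, EdU status from nuclear versus surrounding ring intensity ratio, PBS as neutral control.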
Sequence,percentage of EdU-negative (MCF7; [3]) [%],percentage of EdU-negative (MCF7; protein concentration 0.225 µM) [%],percentage of EdU-negative (hTERT-HMEC; [3]) [%],percentage of EdU-negative (hTERT-HMEC; protein concentration 0.225 µM) [%],further results
MKWLLLLGLVALSECIMYKVPLIRKKSLRRTLSERGLLKDFLKKHNLNPARKYFPQWEAPTLVDEQPLENYLDMEYFGTIGIGTPAQDFTVVFDTGSSNLWVPSVYCSSLACTNHNRFNPEDSSTYQSTSETVSITYGTGSMTGILGYDTVQVGGISDTNQIFGLSETEPGSFLYYAPFDGILGLAYPSISSSGATPVFDNIWNQGLVSQDLFSVYLSADDQSGSVVIFGGIDSSYYTGSLNWVPVTVEGYWQITVDSITMNGEAIACAEGCQAIVDTGTSLLTGPTSPIANIQSDIGASENSDGDMVVSCSAISSLPDIVFTINGVQYPVPPSAYILQSEGSCISGFQGMNLPTESGELWILGDVFIRQYFTVFDRANNQVGLAPVA [P0DJD7],–,–,–,–,percentage of EdU-negative (MCF7; [1]): 25.5 ± 2.2%; percentage of EdU-negative (MCF7; [2]): 24.6 ± 1.6%; percentage of EdU-negative (hTERT-HMEC; [1]): 4.41 ± 0.41%; percentage of EdU-negative (hTERT-HMEC; [2]): 5.85 ± 0.73%
MKWMVVVLVCLQLLEAAVVKVPLKKFKSIRETMKEKGLLGEFLRTHKYDPAWKYRFGDLSVTYEPMAYMDAAYFGEISIGTPPQNFLVLFDTGSSNLWVPSVYCQSQACTSHSRFNPSESSTYSTNGQTFSLQYGSGSLTGFFGYDTLTVQSIQVPNQEFGLSENEPGTNFVYAQFDGIMGLAYPALSVDEATTAMQGMVQEGALTSPVFSVYLSNQQGSSGGAVVFGGVDSSLYTGQIYWAPVTQELYWQIGIEEFLIGGQASGWCSEGCQAIVDTGTSLLTVPQQYMSALLQATGAQEDEYGQFLVNCNSIQNLPSLTFIINGVEFPLPPSSYILSNNGYCTVGVEPTYLSSQNGQPLWILGDVFLRSYYSVYDLGNNRVGFATAA,24.38 ± 0.12,23.4 ± 0.35,4.89 ± 0.11,6.1 ± 0.73,–
MKYLRHRRPNATLILAIGAFTLLLFSLLVSPPTCKVQEQPPAIPEALAWPTPPTRPAPAPCHANTSMVTHPDFATQPQHVQNFLLYRHCRHFPLLQDVPPSKCAQPVFLLLVIKSSPSNYVRRELLRRTWGRERKVRGLQLRLLFLVGTASNPHEARKVNRLLELEAQTHGDILQWDFHDSFFNLTLKQVLFLQWQETRCANASFVLNGDDDVFAHTDNMVFYLQDHDPGRHLFVGQLIQNVGPIRAFWSKYYVPEVVTQNERYPPYCGGGGFLLSRFTAAALRRAAHVLDIFPIDDVFLGMCLELEGLKPASHSGIRTSGVRAPSQRLSSFDPCFYRDLLLVHRFLPYEMLLMWDALNQPNLTCGNQTQIY [Q9Y2A9],25.7 ± 2,30.2 ± 0.85,4.326 ± 0.034,7.879 ± 0.065,–
MKYTSYILAFQLCIVLGSLGCYCQDPYVKEAENLKKYFNAGHSDVADNGTLFLGILKNWKEESDRKIMQSQIVSFYFKLFKNFKDDQSIQKSVETIKEDMNVKFFNSNKKKRDDFEKLTNYSVTDLNVQRKAIHELIQVMAELSPAAKTGKRKRSQMLFRGRRASQ,–,–,–,–,percentage of EdU-negative (MCF7; [4]): 39.5 ± 2.2%; percentage of EdU-negative (MCF7; [5]): 42.7 ± 1.8%; percentage of EdU-negative (hTERT-HMEC; [4]): 92.2 ± 1.5%; percentage of EdU-negative (hTERT-HMEC; [5]): 96.92 ± 0.62%
MLALLAASVALAVAAGAQDSPAPGSRFVCTALPPEAVHAGCPLPAMPMQGGAQSPEEELRAAVLQLRETVVQQKETLGAQREAIRELTGKLARCEGLAGGKARGAGATGKDTMGDLPRDPGHVVEQLSRSLQTLKDRLESLEHQLRANVSNAGLPGDFREVLQQRLGELERQLLRKVAELEDEKSLLHNETSAHRQKTESTLNALLQRVTELERGNSAFKSPDAFKVSLPLRTNYLYGKIKKTLPELYAFTICLWLRSSASPGIGTPFSYAVPGQANEIVLIEWGNNPIELLINDKVAQLPLFVSDGKWHHICVTWTTRDGMWEAFQDGEKLGTGENLAPWHPIKPGGVLILGQEQDTVGGRFDATQAFVGELSQFNIWDRVLRAQEIVNIANCSTNMPGNIIPWVDNNVDVFGGASKWPVETCEERLLDL,24.1 ± 0.47,24.8 ± 0.78,5.346 ± 0.033,6.28 ± 1.3,–
MLALLCSCLLLAAGASDAWTGEDSAEPNSDSAEWIRDMYAKVTEIWQEVMQRRDDDGALHAACQVQPSATLDAAQPRVTGVVLFRQLAPRAKLDAFFALEGFPTEPNSSSRAIHVHQFGDLSQGCESTGPHYNPLAVPHPQHPGDFGNFAVRDGSLWRYRAGLAASLAGPHSIVGRAVVVHAGEDDLGRGGNQASVENGNAGRRLACCVVGVCGPGLWERQAREHSERKKRRRESECKAA,23.8 ± 1,27 ± 0.74,7 ± 3.4,4.98 ± 0.59,–
MLALLVLVTVALASAHHGGEHFEGEKVFRVNVEDENHINIIRELASTTQIDFWKPDSVTQIKPHSTVDFRVKAEDTVTVENVLKQNELQYKVLISNLRNVVEAQFDSRVRATGHSYEKYNKWETIEAWTQQVATENPALISRSVIGTTFEGRAIYLLKVGKAGQNKPAIFMDCGFHAREWISPAFCQWFVREAVRTYGREIQVTELLDKLDFYVLPVLNIDGYIYTWTKSRFWRKTRSTHTGSSCIGTDPNRNFDAGWCEIGASRNPCDETYCGPAAESEKETKALADFIRNKLSSIKAYLTIHSYSQMMIYPYSYAYKLGENNAELNALAKATVKELASLHGTKYTYGPGATTIYPAAGGSDDWAYDQGIRYSFTFELRDTGRYGFLLPESQIRATCEETFLAIKYVASYVLEHLY,24.5 ± 1.1,25.4 ± 0.42,5.24 ± 0.55,5.32 ± 0.42,–
MLAPGSSPGQRGRLALQWRQVSWITCWIALYAVEALPTCPFSCKCDSRSLEVDCSGLGLTTVPPDVPAATRTLLLLNNKLSALPSWAFANLSSLQRLDLSNNFLDRLPRSIFGDLTNLTELQLRNNSIRTLDRDLLRHSPLLRHLDLSINGLAQLPPGLFDGLLALRSLSLRSNRLQNLDRLTFEPLANLQLLQVGDNPWECDCNLREFKHWMEWFSYRGGRLDQLACTLPKELRGKDMRMVPMEMFNYCSQLEDENSSAGLDIPGPPCTKASPEPAKPKPGAEPEPEPSTACPQKQRHRPASVRRAMGTVIIAGVVCGVVCIMMVVAAAYGCIYASLMAKYHRELKKRQPLMGDPEGEHEDQKQISSVA [Q8N967],–,–,–,–,percentage of EdU-negative (MCF7; [4]): 25.5 ± 0.63%; percentage of EdU-negative (MCF7; [5]): 25.5 ± 2.5%; percentage of EdU-negative (hTERT-HMEC; [4]): 5.33 ± 1%; percentage of EdU-negative (hTERT-HMEC; [5]): 5.93 ± 0.73%
MLAVGCALLAALLAAPGAALAPRRCPAQEVARGVLTSLPGDSVTLTCPGVEPEDNATVHWVLRKPAAGSHPSRWAGMGRRLLLRSVQLHDSGNYSCYRAGRPAGTVHLLVDVPPEEPQLSCFRKSPLSNVVCEWGPRSTPSLTTKAVLLVRKFQNSPAEDFQEPCQYSQESQKFSCQLAVPEGDSSFYIVSMCVASSVGSKFSKTQTFQGCGILQPDPPANITVTAVARNPRWLSVTWQDPHSWNSSFYRLRFELRYRAERSKTFTTWMVKDLQHHCVIHDAWSGLRHVVQLRAQEEFGQGEWSEWSPEAMGTPWTESRSPPAENEVSTPMQALTTNKDDDNILFRDSANATSLPVQDSSSVPLPTFLVAGGSLAFGTLLCIAIVLRFKKTWKLRALKEGKTSMHPPYSLGQLVPERPRPTPVLVPLISPPVSPSSLGSDNTSSHNRPDARDPRSPYDISNTDYFFPR,–,–,–,–,percentage of EdU-negative (MCF7; [6]): 25.4 ± 3%; percentage of EdU-negative (MCF7; [7]): 24.4 ± 1.3%; percentage of EdU-negative (hTERT-HMEC; [6]): 5.6 ± 1.1%; percentage of EdU-negative (hTERT-HMEC; [7]): 5.05 ± 0.44%
MLCLGWIFLWLVAGERIKGFNISGCSTKKLLWTYSTRSEEEFVLFCDLPEPQKSHFCHRNRLSPKQVPEHLPFMGSNDLSDVQWYQQPSNGDPLEDIRKSYPHIIQDKCTLHFLTPGVNNSGSYICRPKMIKSPYDVACCVKMILEVKPQTNASCEYSASHKQDLLLGSTGSISCPSLSCQSDAQSPAVTWYKNGKLLSVERSNRIVVDEVYDYHQGTYVCDYTQSDTVSSWTVRAVVQVRTIVGDTKLKPDILDPVEDTLEVELGKPLTISCKARFGFERVFNPVIKWYIKDSDLEWEVSVPEAKSIKSTLKDEIIERNIILEKVTQRDLRRKFVCFVQNSIGNTTQSVQLKEKRGVVLLYILLGTIGTLVAVLAASALLYRHWIEIVLLYRTYQSKDQTLGDKKDFDAFVSYAKWSSFPSEATSSLSEEHLALSLFPDVLENKYGYSLCLLERDVAPGGVYAEDIVSIIKRSRRGIFILSPNYVNGPSIFELQAAVNLALDDQTLKLILIKFCYFQEPESLPHLVKKALRVLPTVTWRGLKSVPPNSRFWAKMRYHMPVKNSQGFTWNQLRITSRIFQWKGLSRTETTGRSSQPKEW,26.2 ± 0.97,24.78 ± 0.22,5.27 ± 0.17,4.77 ± 0.22,–
MLCLLLTLGVALVCGVPAMDIPQTKQDLELPKLAGTWHSMAMATNNISLMATLKAPLRVHITSLLPTPEDNLEIVLHRWENNSCVEKKVLGEKTENPKKFKINYTVANEATLLDTDYDNFLFLCLQDTTTPIQSMMCQYLARVLVEDDEIMQGFIRAFRPLPRHLWYLLDLKQMEEPCRF,–,–,–,–,percentage of EdU-negative (MCF7; [8]): 24.5 ± 2.6%; percentage of EdU-negative (MCF7; [9]): 23 ± 1.3%; percentage of EdU-negative (hTERT-HMEC; [8]): 5.01 ± 0.051%; percentage of EdU-negative (hTERT-HMEC; [9]): 5.65 ± 0.33%
MLDWRLASAHFILAVTLTLWSSGKVLSVDVTTTEAFDSGVIDVQSTPTVREEKSATDLTAKLLLLDELVSLENDVIETKKKRSFSGFGSPLDRLSAGSVDHKGKQRKVVDHPKRRFGIPMDRIGRNRLSNSRG,23.9 ± 2,24.2 ± 1.3,5.01 ± 0.71,5.5 ± 0.22,–
